Data published in article PMC4405178 (Biochemistry, 2015).
Residue numbers refer to the chain shown, from its start.

How the values were obtained:
Experiment in all cases: flow cytometry on cells
full-length Ste2p L211R = target: T1, full-length Ste2p L211R (Saccharomyces cerevisiae, UniProt D6VTK4 1-431, L211R)
T1 sequence (looked up): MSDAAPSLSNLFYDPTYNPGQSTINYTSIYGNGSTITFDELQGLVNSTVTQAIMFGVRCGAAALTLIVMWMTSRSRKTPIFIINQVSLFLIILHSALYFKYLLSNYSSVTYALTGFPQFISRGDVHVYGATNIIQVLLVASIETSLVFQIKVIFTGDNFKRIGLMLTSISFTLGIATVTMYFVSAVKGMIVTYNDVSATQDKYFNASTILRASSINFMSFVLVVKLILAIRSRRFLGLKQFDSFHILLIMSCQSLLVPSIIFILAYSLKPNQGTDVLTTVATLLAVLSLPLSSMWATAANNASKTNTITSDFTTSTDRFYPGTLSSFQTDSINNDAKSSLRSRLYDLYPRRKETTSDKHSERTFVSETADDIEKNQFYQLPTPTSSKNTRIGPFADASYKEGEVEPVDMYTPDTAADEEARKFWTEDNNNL

[1] = target: T2, full-length wild-type Ste2p (Saccharomyces cerevisiae, UniProt D6VTK4 1-431)
T2 sequence (looked up): T1 sequence (looked up) with R211L

[2] = target: T3, C-terminally truncated Ste2p F38Y (Saccharomyces cerevisiae, UniProt D6VTK4 1-303, F38Y)
T3 sequence (looked up): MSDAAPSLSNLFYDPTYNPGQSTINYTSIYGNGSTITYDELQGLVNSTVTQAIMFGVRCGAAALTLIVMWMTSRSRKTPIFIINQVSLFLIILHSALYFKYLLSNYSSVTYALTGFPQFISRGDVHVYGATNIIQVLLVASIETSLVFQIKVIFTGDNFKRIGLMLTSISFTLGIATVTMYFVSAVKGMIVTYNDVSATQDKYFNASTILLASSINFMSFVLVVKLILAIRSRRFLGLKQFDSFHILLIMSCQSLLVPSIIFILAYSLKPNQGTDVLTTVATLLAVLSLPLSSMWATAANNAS

full-length Ste2p H94Y = target: T4, full-length Ste2p H94Y (Saccharomyces cerevisiae, UniProt D6VTK4 1-431, H94Y)
T4 sequence (looked up): T1 sequence (looked up) with H94Y, R211L

full-length Ste2p V49D = target: T5, full-length Ste2p V49D (Saccharomyces cerevisiae, UniProt D6VTK4 1-431, V49D)
T5 sequence (looked up): T1 sequence (looked up) with V49D, R211L

B1: [K^7(NBD),Nle^12] α-factor (peptide)
chain: WHWLQLKPGQPMY
modifications: NBD (7-nitrobenz-2-oxa-1,3-diazol-4-yl) conjugated to the lysine at position 7; norleucine at position 12 in place of methionine
Kd (full-length Ste2p L211R): 0.8 ± 0.1 nM | Kd [1]: 7.3 ± 0.9 nM | Kd [2]: 59 ± 11 nM | Kd (full-length Ste2p H94Y): 5.2 ± 2.1 nM | Kd (full-length Ste2p V49D): 5.3 ± 2.3 nM
